Source: the RNAGym collection of RNA variant scans (doi:10.1093/molbev/msab373)

B1: Azoarcus group I ribozyme (parent)
chain: GUGCCUUGCGCCGGGAAACCACGCAAGGGAUGGUGUCAAAUUCGGCGAAACCUAAGCGCCCGCCCGGGCGUAUGGCAACGCCGAGCCAAGCUUCGGCGCCUGCGCCGAUGAAGGUGUAGAGACUAGACGGCACCCACCUAAGGCAAACGCUAUGGUGAAGGCAUAGUCCAGGGAGUGGCGAAAGUCACACAAACCGG

Variants of: B1
Assay: reverse-splicing fitness (ratio to wild type); higher = more active; in vitro selection; Mg2+ level not given
Outline: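 An in vitro group I ribozyme library with randomized positions was T7-transcribed and gel-purified. In triplicate, 10 pmol RNA in EPPS pH 7.5 was reacted with 50 pmoles of a 30-nt RNA substrate for 1 h at 37 °C across several added MgCl2 levels (1–48 mM), then stopped with EDTA. Products were reverse transcribed from a substrate-complementary primer, PCR-amplified and sequenced (HiSeq 4000). Fitness is a variant's read proportion after selection over that before, normalised to wild type.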

Q: For C82U A111U A120C C150G C169G U176C, which reverse-splicing fitness is on record?
A: 0.00458

Q: For C82U A111U A120C C150G C169G U176G, which reverse-splicing fitness is on record?
A: 0.00402

Q: For C82U A111U A120C C150G C169G U176A, which reverse-splicing fitness is on record?
A: 0.00688

Q: Which reverse-splicing fitness does the source give for C82U A111U A120C A145G C150U C169G U176G here?
A: 0.00514

Q: With C82U A111U A120C A145G C150U C169G U176C as the variant, how does the reverse-splicing fitness read?
A: 0.016

Q: Which reverse-splicing fitness does the source give for C82U A111U A120C A145G C150U C169G U176A here?
A: 0.0128

Q: Which reverse-splicing fitness does the source give for C82U A111U A120C C150G U176C here?
A: 0.00725

Q: For C82U A111U A120C C150G U176G, which reverse-splicing fitness is on record?
A: 0.00352

Q: For C82U A111U A120C C150G U176A, which reverse-splicing fitness is on record?
A: 0.00451

Q: Which reverse-splicing fitness does the source give for C82U A111U A120C A145U C150A C169U U176G here?
A: 0.00498

Q: For C82U A111U A120C A145U C150A C169U U176A, which reverse-splicing fitness is on record?
A: 0.0145

Q: For C82U A111U A120C A145U C150A C169U U176C, which reverse-splicing fitness is on record?
A: 0.0156

Q: With C82U A111U A120C A145U C150A C169G as the variant, how does the reverse-splicing fitness read?
A: 0.00687

Q: Which reverse-splicing fitness does the source give for C82U A111U A120C A145U C150A C169A here?
A: 0.00772

Q: With C82U A111U A120C A145U C150A C169U as the variant, how does the reverse-splicing fitness read?
A: 0.00908

Q: For C82U A111U A120G A145C C150A C169G, which reverse-splicing fitness is on record?
A: 0.00785

Q: With C82U A111U A120G A145C C150A C169U as the variant, how does the reverse-splicing fitness read?
A: 0.00623

Q: Which reverse-splicing fitness does the source give for C82U A111U A120G A145C C150A C169A here?
A: 0.00756

Q: For C82U A111U A120C C150A C169A U176G, which reverse-splicing fitness is on record?
A: 0.00592

Q: With C82U A111U A120C C150A C169A U176A as the variant, how does the reverse-splicing fitness read?
A: 0.0182

Q: With C82U A111U A120C C150A C169A U176C as the variant, how does the reverse-splicing fitness read?
A: 0.0182

Q: For C82U A111U A120C C150G C169A U176G, which reverse-splicing fitness is on record?
A: 0.00603

Q: Which reverse-splicing fitness does the source give for C82U A111U A120C C150G C169A U176C here?
A: 0.0101

Q: Which reverse-splicing fitness does the source give for C82U A111U A120C C150G C169A U176A here?
A: 0.0105

Q: For C82U A111U A120C A145U C150G C169G U176C, which reverse-splicing fitness is on record?
A: 0.0054

Q: For C82U A111U A120C A145U C150G C169G U176G, which reverse-splicing fitness is on record?
A: 0.0048

Q: For C82U A111U A120C A145U C150G C169G U176A, which reverse-splicing fitness is on record?
A: 0.00657

Q: With C82U A111U A120C A145U C169A U176G as the variant, how does the reverse-splicing fitness read?
A: 0.00442

Q: With C82U A111U A120C A145U C169A U176C as the variant, how does the reverse-splicing fitness read?
A: 0.00749

Q: With C82U A111U A120C A145U C169A U176A as the variant, how does the reverse-splicing fitness read?
A: 0.00849

Q: With C82U A111U A120C A145U C169U U176A as the variant, how does the reverse-splicing fitness read?
A: 0.0155

Q: For C82U A111U A120C A145U C169U U176C, which reverse-splicing fitness is on record?
A: 0.0136

Q: With C82U A111U A120C A145U C169U U176G as the variant, how does the reverse-splicing fitness read?
A: 0.00395

Q: With C82U A111U A120C C150U U176C as the variant, how does the reverse-splicing fitness read?
A: 0.0158

Q: Which reverse-splicing fitness does the source give for C82U A111U A120C C150U U176G here?
A: 0.00696

Q: Which reverse-splicing fitness does the source give for C82U A111U A120C C150U U176A here?
A: 0.011

Q: For C82U A111U A120C C169G U176C, which reverse-splicing fitness is on record?
A: 0.018

Q: With C82U A111U A120C C169G U176A as the variant, how does the reverse-splicing fitness read?
A: 0.0148

Q: Which reverse-splicing fitness does the source give for C82U A111U A120C C169G U176G here?
A: 0.0049

Q: With C82U A111U A120C A145U C150G C169G as the variant, how does the reverse-splicing fitness read?
A: 0.00651

Q: With C82U A111U A120C A145U C150G C169A as the variant, how does the reverse-splicing fitness read?
A: 0.00868

Q: With C82U A111U A120C A145U C150G C169U as the variant, how does the reverse-splicing fitness read?
A: 0.00819

Q: Which reverse-splicing fitness does the source give for C82U A111U A120C A145U C150U C169U here?
A: 0.0101

Q: With C82U A111U A120C A145U C150U C169A as the variant, how does the reverse-splicing fitness read?
A: 0.00828

Q: For C82U A111U A120C A145U C150U C169G, which reverse-splicing fitness is on record?
A: 0.00796

Q: With C82U A111U A120C A145G C150U C169U as the variant, how does the reverse-splicing fitness read?
A: 0.0108

Q: For C82U A111U A120C A145G C150U C169G, which reverse-splicing fitness is on record?
A: 0.00811

Q: Which reverse-splicing fitness does the source give for C82U A111U A120C C150A U176G here?
A: 0.0056

Q: With C82U A111U A120C C150A U176A as the variant, how does the reverse-splicing fitness read?
A: 0.0126

Q: For C82U A111U A120C C150A U176C, which reverse-splicing fitness is on record?
A: 0.0189

Q: Which reverse-splicing fitness does the source give for C82U A111U A120C A145U C150U C169U U176C here?
A: 0.0157

Q: Which reverse-splicing fitness does the source give for C82U A111U A120C A145U C150U C169U U176A here?
A: 0.0145

Q: With C82U A111U A120C A145U C150U C169U U176G as the variant, how does the reverse-splicing fitness read?
A: 0.00516

Q: For C82U A111U A120C A145U C150A U176A, which reverse-splicing fitness is on record?
A: 0.0115

Q: Which reverse-splicing fitness does the source give for C82U A111U A120C A145U C150A U176C here?
A: 0.00963

Q: With C82U A111U A120C A145U C150A U176G as the variant, how does the reverse-splicing fitness read?
A: 0.0048

Q: For C82U A111U A120C A145U C150G C169U U176A, which reverse-splicing fitness is on record?
A: 0.00894

Q: Which reverse-splicing fitness does the source give for C82U A111U A120C A145U C150G C169U U176G here?
A: 0.00523

Q: Which reverse-splicing fitness does the source give for C82U A111U A120C A145U C150G C169U U176C here?
A: 0.0122

Q: For C82U A111U A120C C169U U176A, which reverse-splicing fitness is on record?
A: 0.0196

Q: With C82U A111U A120C C169U U176G as the variant, how does the reverse-splicing fitness read?
A: 0.00459

Q: For C82U A111U A120C C169U U176C, which reverse-splicing fitness is on record?
A: 0.0164

Q: For C82U A111U A120C C150G C169A, which reverse-splicing fitness is on record?
A: 0.00864

Q: For C82U A111U A120C C150G C169G, which reverse-splicing fitness is on record?
A: 0.00613

Q: For C82U A111U A120C C150G C169U, which reverse-splicing fitness is on record?
A: 0.00868

Q: For C82U A111U A120C C169U, which reverse-splicing fitness is on record?
A: 0.0117

Q: With C82U A111U A120C C169A as the variant, how does the reverse-splicing fitness read?
A: 0.00717

Q: Which reverse-splicing fitness does the source give for C82U A111U A120C C169G here?
A: 0.00824

Q: With C82U A111U A120G A145C C150A as the variant, how does the reverse-splicing fitness read?
A: 0.0064

Q: With C82U A111U A120C A145U C150G C169A U176C as the variant, how does the reverse-splicing fitness read?
A: 0.00923

Q: With C82U A111U A120C A145U C150G C169A U176G as the variant, how does the reverse-splicing fitness read?
A: 0.0051

Q: For C82U A111U A120C A145U C150G C169A U176A, which reverse-splicing fitness is on record?
A: 0.00915

Q: Which reverse-splicing fitness does the source give for C82U A111U A120C C150A C169G here?
A: 0.0083

Q: For C82U A111U A120C C150A C169U, which reverse-splicing fitness is on record?
A: 0.0114

Q: With C82U A111U A120C C150A C169A as the variant, how does the reverse-splicing fitness read?
A: 0.00966

Q: Which reverse-splicing fitness does the source give for C82U A111U A120C C150U C169U U176A here?
A: 0.0177

Q: Which reverse-splicing fitness does the source give for C82U A111U A120C C150U C169U U176C here?
A: 0.0157

Q: With C82U A111U A120C C150U C169U U176G as the variant, how does the reverse-splicing fitness read?
A: 0.00524

Q: For C82U A111U A120C C169A U176A, which reverse-splicing fitness is on record?
A: 0.0152

Q: Which reverse-splicing fitness does the source give for C82U A111U A120C C169A U176C here?
A: 0.0138

Q: With C82U A111U A120C C169A U176G as the variant, how does the reverse-splicing fitness read?
A: 0.00513

Q: Which reverse-splicing fitness does the source give for C82U A111U A120C A145G C169G U176G here?
A: 0.00473

Q: For C82U A111U A120C A145G C169G U176C, which reverse-splicing fitness is on record?
A: 0.0209
